Test [1] addresses T1, NKp30 coated on the ELISA plate (Example 14) (UniProt O14931 19-135).
T1 chain: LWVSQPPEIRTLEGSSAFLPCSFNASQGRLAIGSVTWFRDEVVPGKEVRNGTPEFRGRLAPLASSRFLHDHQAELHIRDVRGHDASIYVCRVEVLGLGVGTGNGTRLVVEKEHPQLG
The test is described as follows: ELISA. On the technique in general: An ELISA detects its analyte on a solid surface through an enzyme-linked reagent.

The target of test [2] is T1, NKp30 coated on the ELISA plate …. The experiment in a line: competition ELISA; blocking of B7-H6 binding to NKp30.

B1: B7-H6 (ligand)
chain: DLKVEMMAGGTQITPLNDNVTIFCNIFYSQPLNITSMGITWFWKSLTFDKEVKVFEFFGDHQEAFRPGAIVSPWRLKSGDASLRLPGIQLEEAGEYRCEVVVTPLKAQGTVQLEVVASPASRLLLDQVGMKENEDKYMCESSGFYPEAINITWEKQTQKFPHPIEISEDVITGPTIKNMDGTFNVTSCLKLNSSQEDPGTVYQCVVRHASLHTPLRSNFTLTAARHSLSETEKTDNFS
A word on the Kd: it is the constant that tells how readily two partners part at equilibrium. The low end stands for a tighter complex, the high end for a looser complex. In the case of B1, binding in test [1] was put at a Kd of 6.56 nM.

B2: BJM1042 (bispecific anti-TRBC1/NKp30 antibody) (bispecific antibody)
heavy: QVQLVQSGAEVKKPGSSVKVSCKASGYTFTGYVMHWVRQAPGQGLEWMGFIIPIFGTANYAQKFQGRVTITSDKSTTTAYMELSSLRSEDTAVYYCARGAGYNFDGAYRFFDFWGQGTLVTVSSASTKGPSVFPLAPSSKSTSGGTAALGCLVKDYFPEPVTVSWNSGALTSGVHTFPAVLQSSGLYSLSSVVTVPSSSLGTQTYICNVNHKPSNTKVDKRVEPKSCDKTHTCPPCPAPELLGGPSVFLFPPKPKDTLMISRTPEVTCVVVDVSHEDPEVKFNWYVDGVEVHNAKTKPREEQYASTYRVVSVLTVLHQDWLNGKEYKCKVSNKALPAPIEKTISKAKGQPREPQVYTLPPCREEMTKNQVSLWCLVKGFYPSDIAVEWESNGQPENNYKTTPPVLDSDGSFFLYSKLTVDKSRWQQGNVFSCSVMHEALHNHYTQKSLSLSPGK
light: DVVMTQSPLSLPVTLGQPASISCRSSQRLVHSNGNTYLHWYQQRPGQSPRLLIYRVSNRFPGVPDRFSGSGSGTDFTLKISRVEAEDVGVYFCSQSTHVPYTFGGGTKVEIKRTVAAPSVFIFPPSDEQLKSGTASVVCLLNNFYPREAKVQWKVDNALQSGNSQESVTEQDSKDSTYSLSSTLTLSKADYEKHKVYACEVTHQGLSSPVTKSFNRGEC
chain: EIQLLESGGGLVQPGGSLRLSCAVSGFSITTTGYHWNWVRQAPGKGLEWVGYIYSSGSTSYNPSLKSRFTISRDTSKNTFYLQMNSLRAEDTAVYYCARGDWHYFDYWGQGTMVTVSSGGGGSGGGGSGGGGSGGGGSDSVTTQSPLSLPVTLGQPASISCSGEKLSDKYVHWYQQRPGQSPRMLIYENDRRPSGVPDRFSGSNSGNDATLKISRVEAEDVGVYFCQFWDSTNSAVFGGGTKVEIKDKTHTCPPCPAPELLGGPSVFLFPPKPKDTLMISRTPEVTCVVVDVSHEDPEVKFNWYVDGVEVHNAKTKPREEQYASTYRVVSVLTVLHQDWLNGKEYKCKVSNKALPAPIEKTISKAKGQPREPQVCTLPPSREEMTKNQVSLSCAVKGFYPSDIAVEWESNGQPENNYKTTPPVLDSDGSFFLVSKLTVDKSRWQQGNVFSCSVMHEALHNHYTQKSLSLSPGK
By IC50 is commonly meant the concentration at which inhibition is half-maximal. Read a high IC50 as weaker potency in that assay. For B2, the Kd in test [1] came to 0.578 nM. Also, the concentration for half-maximal inhibition (IC50) in test [2] amounted to 29.4 nM.

The values are drawn from patent publication US20230333112A1 (published 2023).
